B1: αB-crystallin with residues 54–61 deleted (natural protein, human, UniProt P02511 1-175, looked up)
chain: MDIAIHHPWIRRPFFPFHSPSRLFDQFFGEHLLESDLFPTSTSLSPFYLRPPSDTGLSEMRLEKDRFSVNLDVKHFSPEELKVKVLGDVIEVHGKHEERQDEHGFISREFHRKYRIPADVDPLTITSSLSSDGVLTVNGPRKQVSGPERTIPITREEKPAVTAAPKK
notes: No tag is mentioned; 306 kDa by MALS; also called αBΔ54–61; deletion mutant; source: E. coli BL21(DE3)pLysS, purified (ammonium sulfate precipitation, gel filtration twice)
B2: wild-type αB-crystallin (natural protein, human, UniProt P02511 1-175, looked up)
chain: MDIAIHHPWIRRPFFPFHSPSRLFDQFFGEHLLESDLFPTSTSLSPFYLRPPSFLRAPSWFDTGLSEMRLEKDRFSVNLDVKHFSPEELKVKVLGDVIEVHGKHEERQDEHGFISREFHRKYRIPADVDPLTITSSLSSDGVLTVNGPRKQVSGPERTIPITREEKPAVTAAPKK
notes: αB-crystallin, human, wild type; subunit of ~20 kDa that forms a homo-oligomer; also called αB-wt; WT protein; source: E. coli BL21(DE3)pLysS, purified (ammonium sulfate precipitation, gel filtration twice)

How the values were obtained:
luciferase = luciferase (UniProt P08659 1-550 = luciferase); assay: cell-based or functional assay
lysozyme = lysozyme (UniProt P00698 19-147); assay: cell-based or functional assay
[1] = biological target: the molecule itself; assay: SEC-MALS; peak 2 (crystallin) of the mixtures with citrate synthase at 0 min, before incubation; TSK G5000PWXL column, MALS and quasi-elastic light scattering; homo-oligomer of ~20 kDa subunits

Chain of luciferase (P08659 whole entry): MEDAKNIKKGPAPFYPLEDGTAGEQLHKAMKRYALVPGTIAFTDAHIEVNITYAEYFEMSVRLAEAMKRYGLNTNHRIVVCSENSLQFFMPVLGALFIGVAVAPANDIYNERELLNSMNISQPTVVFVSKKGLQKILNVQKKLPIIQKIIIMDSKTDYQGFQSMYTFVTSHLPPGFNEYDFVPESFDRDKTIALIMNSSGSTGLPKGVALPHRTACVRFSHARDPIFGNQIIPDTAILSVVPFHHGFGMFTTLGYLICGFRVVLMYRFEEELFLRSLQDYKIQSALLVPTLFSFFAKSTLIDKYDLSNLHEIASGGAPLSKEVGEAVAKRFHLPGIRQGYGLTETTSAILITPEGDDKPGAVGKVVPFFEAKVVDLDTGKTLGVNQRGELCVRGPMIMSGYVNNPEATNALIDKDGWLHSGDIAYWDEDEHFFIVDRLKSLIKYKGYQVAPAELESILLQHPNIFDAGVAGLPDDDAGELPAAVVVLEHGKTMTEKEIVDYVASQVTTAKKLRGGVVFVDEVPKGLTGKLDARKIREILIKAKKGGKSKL
Chain of lysozyme (P00698 19-147): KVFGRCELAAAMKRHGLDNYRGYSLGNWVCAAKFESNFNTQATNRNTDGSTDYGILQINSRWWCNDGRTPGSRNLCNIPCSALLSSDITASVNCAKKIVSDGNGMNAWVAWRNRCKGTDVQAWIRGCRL

| Binder | EC50: chaperone concentration that suppresses the aggregation of 1 µM luciferase (PBS, 37 °C, light scattering at 360 nm) by 50% (luciferase) | EC50: chaperone concentration that suppresses the aggregation of 10 µM lysozyme (2 mM DTT, PBS, 37 °C, light scattering at 360 nm) by 50% (lysozyme) | binding result [1] |
| --- | --- | --- | --- |
| B1 | 9 µM | 1.8 µM | binds |
| B2 | 48 µM | 2.8 µM | binds |
